Changes are numbered by the printed parent chain.
B1: 39D1 (antibody, V domains shown)
VH: QVQLQQSGAELMKPGASVKISCKATGYTFSSSYWIEWVKQRPGHGLEWIGEILPGSGSINYNEKFKGKATFTADTSSNTVYMQLSSLTSDDSAVYYCARSYYYVMDYWGQGTSVTVSS
VL: QIVLTQSPAIMSASPGEMLTITCSASSSVRFMHWFQQKPGTSPKLWIYSTSNLASGVPARFSGSGSGTSYSLTVSRMEAEDAATYYCQQRSSYPPTFGGGTKLEIK
B2: 3F2 (antibody, V domains shown)
VH: EVQLQQSGPELVKTGSSVKISCKASGYSFTGYYMHWVRQSPGKSLEWIGYISCYNGATNYNQKFKGKATFTVDTYSSTAYMQFDSLASEDSAVYYCVRDYYLSVMDYWGQGTSVTVSS
VL: NIMMTQSPSSLAVSAGEKVTMSCKSSQSVLYSSNQKNYLAWYQQKPGQSPKLLIYWASFRESGVPDRFTGSGSGTDFTLTISSVQAEDLAVYYCHQSLSSYTFGGGTKLEIK
B3: 3E6 (antibody, V domains shown)
VH: DVQLQEAGPGLVKPSQSLSLNCTVTGYSITSGFAWNWIRQFPGNKLEWMGYISHSGSTSYNPSLKSRISITRDTSKNQFFLQLNSVTTEDTATYYCARGYRSPWFAYWGQGTLVTVSA
VL: DIIMTQSQKFMSTSVGDRVSVTCKASQNVGANVAWYQQKPRQSPKALIYSASYRYSGVPDRFTGSGSGTDFTLTISNVQSEDLAEYFCQQYNSYPTFGGGTKLEIK
B4: 4H2 (antibody, V domains shown)
VH: EVQLQESGPSLVKPSQTLSLTCSVTGDSITSGYWNWIRKFPGNKLEYMGYINYSGSTYYNPSLKSRISITRDTSKNQYYLQLNSVTTEDTATYYCATGNHFDYWGQGTTLTVSS
VL: DIQMTQSPSSLSASLGGKVTITCKASQDINKYIAWYQHKPGKGPRLLIHYTSTLQPGIPSRFSGSGSGTDYSFSISNLEPEDFATYYCLQYDNLLFTFGSGTKLEIK
B5: 16H1 (antibody, V domains shown)
VH: QVQLQQSGPQLVRPGSSVQISCKTSGYSFTSYLMHWVRQRPGQGLEWIGSIDPSDSEISLNQKFMDKATLTVDKSSSTANMQFSSPTSEDSAVYFCARDFGYVAWFVYWGQGTLVTVSA
VL: DIVMTQSHKFMSTSIEDRVSITCKASQDVSAAVAWYQQKPGQTPKLLIYSTFYRYIGVPDRFTGSGSGTDFTFTITSVQAEDLAVYFCQQHYSVPWTFGGGTKLEIK
notes: also called I6H1
B6: 19D11 (antibody, V domains shown)
VH: B3 VH with A7S, G10D, N21T, F33Y, A34S, N36H, S53Y, H54F, S59N, P103A
VL: DIVMTQSQKFMSTSVGDRVSVTCKASQNVGTNVAWYQQKPGQSPKTLIYSASYRYSGVPDRFTGSGSGTDFTLTISNVQSEDLAEYFCQQYNSYPLVTFGTGTKLELK
B7: CH 10# (antibody, V domains shown)
VH: QVQLQQSGAELMKPGASVKISCKAIGYTFSSYWIEWVKQRPGHGLEWIGEISPGRGSTNYNEKFKGKATFTADTSSNTAYMQLSSLTSEDSAVYYCARDYYGSIFDVWGQGTTVTVSS
VL: DIELTQSPALMAASPGEKVTITCSASSSVSSSYLHWYQQKPGSSPKLWIYSTSNLASGVPARFSGSGSGTSYSLTISSMEAEDAATYYCQQWSSYPLTFGAGTKLEIK
B8: CH 11# (antibody, V domains shown)
VH: QVKLQQSGPDLVKPGASVKISCKASGYSFTGYYMHWVKQSHGKSLEWIGRVNPNNGGTTYKQKFKGKVILTVDKSSSTAYMELRSLTSEDSAVYYCAREGEYFDYYTMDYWGQGTTVTVSS
VL: DIELTQSPASLAVSLGQRATISCRASESVEYYGTSLMQWYQQKPGQPPKLLIYAASNVESGVPARFSGSVSGTDFSLNIHPVEEDDIAVYFCQQSRKVPITFGSGTKLELK

How the values were obtained:
cynomolgus TIM-3 [1] = biological target: T1, cynomolgus TIM-3 (cynomolgus, UniProt A0A2K5U3G7 22-294); test: flow cytometry on 293T cells stably expressing cynomolgus TIM-3, serially diluted antibody, PE-labelled secondary antibody [lower panel]
T1 construct: whole, on cells
T1 sequence: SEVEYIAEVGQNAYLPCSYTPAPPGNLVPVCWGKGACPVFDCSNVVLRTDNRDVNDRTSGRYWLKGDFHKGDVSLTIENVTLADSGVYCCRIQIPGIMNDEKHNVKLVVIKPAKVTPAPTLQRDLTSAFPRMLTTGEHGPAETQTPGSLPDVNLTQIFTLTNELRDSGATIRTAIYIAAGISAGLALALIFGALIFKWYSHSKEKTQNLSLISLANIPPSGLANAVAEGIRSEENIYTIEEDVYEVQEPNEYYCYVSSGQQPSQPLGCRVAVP
Procedure: (§1) Briefly, serially diluted anti-TIM-3 antibodies were incubated with cell lines stably expressing mouse TIM-3 or cynomolgus TIM-3 (10⁵ cells/well). Then, PE-labelled mouse anti-human IgG antibody (Biolegend) was used as detection antibody. A flow cytometer (Canto II, BD, USA) was used to measure fluorescence.

[2] = biological target: T2, human TIM-3 recombinant protein (TIM-3-his) (human, UniProt Q8TDQ0 22-202); test: biosensor (HFC sensor, Probe Life): antibody captured, TIM-3-his in solution, 1:1 fit;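 note: antigen applied as a twofold dilution series, association and dissociation phases recorded, KD obtained as koff divided by kon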
T2 construct: also called TIM-3 protein; not shown: His tag

biotinylated human TIM-3 [3] = biological target: T3, biotinylated human TIM-3 (human, UniProt Q8TDQ0 22-202, limits assumed, biotinylated (sites not given)); test: competition ELISA: antibody coated, biotinylated human TIM-3 preincubated with competitor TSR022
biotinylated human TIM-3 [4] = biological target: T3, biotinylated human TIM-3; test: competition ELISA: antibody coated, biotinylated human TIM-3 preincubated with competitor CH 11#
Procedure: (§2) Antibodies were diluted with PBS to 2 μg/mL. 50 μl antibody solution was added to each well of the 96-well plate, which was incubated at 4° C. overnight. The plate was then washed with wash buffer (0.05% Tween in PBS) three times and blocked with 5% skim milk in PBS at 37° C. for two hours. The biotinylated human TIM-3 and antibodies were preincubated at room temperature for half an hour and then added to the plate. The plate was then incubated at room temperature for 1 hour and washed three times with wash buffer. 50 μl streptavidin HRP (1:1000, BD) was then added to each well at room temperature and incubated for about 1 hour. 50 μl of TMB substrate was added to each well, and the reaction was then terminated with 50 μl HCL after 1-5 minutes. Absorbance was read at 450 nm and IC50 value was analyzed.

biotinylated human TIM-3 [5] = biological target: T3, biotinylated human TIM-3; test: competition ELISA: antibody coated, biotinylated human TIM-3 preincubated with competitor 3E6
Procedure: as §2

biotinylated human TIM-3 [6] = biological target: T3, biotinylated human TIM-3; test: competition ELISA: antibody coated, biotinylated human TIM-3 preincubated with competitor CH 10#
Procedure: as §2

cynomolgus TIM-3 [7] = biological target: T1, cynomolgus TIM-3; test: flow cytometry on 293T cells stably expressing cynomolgus TIM-3, serially diluted antibody, PE-labelled secondary antibody [upper panel]
Procedure: as §1

biotinylated human TIM-3 [8] = biological target: T3, biotinylated human TIM-3; test: competition ELISA: antibody coated, biotinylated human TIM-3 preincubated with competitor 16H1
Procedure: as §2

biotinylated human TIM-3 [9] = biological target: T3, biotinylated human TIM-3; test: competition ELISA: antibody coated, biotinylated human TIM-3 preincubated with competitor MBG453
Procedure: as §2

human TIM-3 = biological target: T4, human TIM-3 (human, UniProt Q8TDQ0 22-202, limits assumed); test: blocking assay, flow cytometry: antibody preincubated with recombinant human TIM-3-Fc, then binding of TIM-3-Fc to apoptotic 293T cells; blocked ligand: phosphatidylserine
T4 construct: also called HAVCR2; target antigen
Procedure: After the cells were washed once, PE-labelled goat anti-mouse IgG antibody was added and incubated for 1 hour at 4° C. Finally, samples were washed once with 1× Annexin-V buffer and fluorescence was measured with a flow cytometer (Canto II, BD, USA).

biotinylated human TIM-3 [10] = biological target: T3, biotinylated human TIM-3; test: competition ELISA: antibody coated, biotinylated human TIM-3 preincubated with competitor 19D11
Procedure: as §2

mouse TIM-3 = biological target: T5, mouse TIM-3 (mouse, UniProt Q8VIM0 20-281); test: flow cytometry on cells stably expressing mouse TIM-3, PE-labelled secondary antibody; concentration not shown
T5 construct: whole, on cells

biotinylated human TIM-3 [11] = biological target: T3, biotinylated human TIM-3; test: competition ELISA: antibody coated, biotinylated human TIM-3 preincubated with competitor 4H2
Procedure: as §2
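Throughout, for inhibit percentage: plate-coated antibody at 2 µg/mL.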

Binder | EC50 (read off the curve) (cynomolgus TIM-3 [1]) [µg/mL] | Kd [2] [nM] | koff [2] [s⁻¹] | kon [2] [M⁻¹ s⁻¹] | inhibit percentage (biotinylated human TIM-3 [3]) [%] | inhibit percentage (biotinylated human TIM-3 [4]) [%] | inhibit percentage (biotinylated human TIM-3 [5]) [%] | inhibit percentage (biotinylated human TIM-3 [6]) [%] | EC50 (read off the curve) (cynomolgus TIM-3 [7]) [µg/mL] | inhibit percentage (biotinylated human TIM-3 [8]) [%] | inhibit percentage (biotinylated human TIM-3 [9]) [%] | IC50 (read off the curve) (human TIM-3) [µg/mL] | inhibit percentage (biotinylated human TIM-3 [10]) [%] | binding result (mouse TIM-3) | inhibit percentage (biotinylated human TIM-3 [11]) [%]
B1 | ~0.02 | 1.13 | 0.00141 | 1.25e+06 | – | – | – | – | – | – | – | – | – | – | –
B2 | ~0.4 | 1.11 | 0.00066 | 596000 | – | – | – | – | – | – | – | – | – | – | –
B3 | – | 0.23 | 0.000284 | 1.24e+06 | 16.4 | 67.1 | 100 | 50.1 | ~0.1 | 26.3 | 24.9 | ~4 | 38.7 | no binding | 99.6
B4 | – | 0.424 | 0.000558 | 1.32e+06 | 16.7 | 62.5 | 99.9 | 56.8 | ~0.07 | 28.9 | 28 | ~4 | 39 | no binding | 100
B5 | – | 0.168 | 0.000218 | 1.3e+06 | 4.02 | 8.26 | 60 | 15.1 | ~0.04 | 100 | 81.7 | ~2 | 0.06 | no binding | 64.7
B6 | – | 0.604 | 0.00037 | 613000 | 10.3 | 100 | 100 | 100 | – | 0 | 0 | ~7 | 100 | no binding | 100
B7 | – | 38.2 | 0.00148 | 38600 | 48.5 | 99.7 | 98.2 | 100 | – | 45.8 | 35.4 | ~4 | 98.1 | no binding | 98.6
B8 | – | 19.1 | 0.000705 | 36900 | 0 | 100 | 97.8 | 98.2 | – | 0 | 29.4 | – | 99.4 | no binding | 99.6

From patent US20230365685A1 (SUZHOU NEOLOGICS BIOSCIENCE, published 2023)
